From patent US20160272683A1 (Novo Nordisk, published 2016) come the findings set out here.

Numbered stars: 1 amine (or outer) side, 2 acyl side, 3 side chain; on linkers, the order of the positions; unused ones are H or OH. Square brackets hold non-standard residues; d marks the D form. * marks the point of attachment. C20 diacid = O=C(O)CCCCCCCCCCCCCCCCCCC(=O)*; γGlu = O=C(O)[C@H](CCC(=O)[*:2])N[*:1]

In assay [1] the target is T1, human calcitonin receptor on BHK570/CRE-luc cells (human, UniProt P30988 25-474).
T1 sequence (looked up): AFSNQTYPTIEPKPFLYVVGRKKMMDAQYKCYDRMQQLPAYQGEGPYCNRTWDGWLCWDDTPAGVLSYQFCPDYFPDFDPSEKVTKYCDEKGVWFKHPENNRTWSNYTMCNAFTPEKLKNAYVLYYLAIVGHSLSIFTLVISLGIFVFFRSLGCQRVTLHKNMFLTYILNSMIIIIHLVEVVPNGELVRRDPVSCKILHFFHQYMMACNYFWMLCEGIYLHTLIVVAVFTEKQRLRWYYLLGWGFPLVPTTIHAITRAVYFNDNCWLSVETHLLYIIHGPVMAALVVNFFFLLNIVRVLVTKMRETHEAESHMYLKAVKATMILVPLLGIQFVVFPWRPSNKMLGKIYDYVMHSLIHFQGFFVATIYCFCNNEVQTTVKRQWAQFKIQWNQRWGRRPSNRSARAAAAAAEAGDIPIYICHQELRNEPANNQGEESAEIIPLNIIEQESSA
As to the kind of experiment: cell-based or functional assay.

Assay [2] has as its target T2, human amylin 3(a) receptor (human calcitonin receptor co-expressed with RAMP-3) on BHK570/CRE-luc cells (human, UniProt P30988 25-474; O60896 24-148).
T2 sequence (looked up) 1: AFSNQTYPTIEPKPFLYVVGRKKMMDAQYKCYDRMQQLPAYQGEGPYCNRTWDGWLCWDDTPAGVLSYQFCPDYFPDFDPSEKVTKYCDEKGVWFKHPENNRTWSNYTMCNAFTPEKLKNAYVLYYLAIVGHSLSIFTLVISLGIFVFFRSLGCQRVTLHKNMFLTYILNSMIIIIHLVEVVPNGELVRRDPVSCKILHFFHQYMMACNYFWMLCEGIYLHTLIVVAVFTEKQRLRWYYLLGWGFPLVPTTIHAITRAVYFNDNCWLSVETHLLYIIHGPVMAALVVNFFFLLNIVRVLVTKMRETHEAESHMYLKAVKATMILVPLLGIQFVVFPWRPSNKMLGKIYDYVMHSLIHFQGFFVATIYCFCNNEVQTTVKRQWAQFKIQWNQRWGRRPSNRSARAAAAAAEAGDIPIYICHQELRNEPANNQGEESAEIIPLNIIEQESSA
T2 sequence (looked up) 2: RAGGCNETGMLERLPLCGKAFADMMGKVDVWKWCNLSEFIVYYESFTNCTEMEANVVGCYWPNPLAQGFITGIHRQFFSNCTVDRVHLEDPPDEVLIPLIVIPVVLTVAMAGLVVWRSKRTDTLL
The assay is described as follows: cell-based or functional assay.

B1: [N-terminal(C20 diacid-gGlu), des1, 30S, 31G, 33S]mimylin (peptide)
peptide: {C20 diacid-γGlu}-ASELSTAALGRLSAELHELATLPRTETGSGSS-NH2
SMILES: CC(C)C[C@H](NC(=O)[C@H](C)NC(=O)[C@H](C)NC(=O)[C@@H](NC(=O)[C@H](CO)NC(=O)[C@H](CC(C)C)NC(=O)[C@H](CCC(=O)O)NC(=O)[C@H](CO)NC(=O)[C@H](C)NC(=O)CC[C@H](NC(=O)CCCCCCCCCCCCCCCCCCC(=O)O)C(=O)O)[C@@H](C)O)C(=O)NCC(=O)N[C@@H](CCCNC(=N)N)C(=O)N[C@@H](CC(C)C)C(=O)N[C@@H](CO)C(=O)N[C@@H](C)C(=O)N[C@@H](CCC(=O)O)C(=O)N[C@@H](CC(C)C)C(=O)N[C@@H](Cc1c[nH]cn1)C(=O)N[C@@H](CCC(=O)O)C(=O)N[C@@H](CC(C)C)C(=O)N[C@@H](C)C(=O)N[C@H](C(=O)N[C@@H](CC(C)C)C(=O)N1CCC[C@H]1C(=O)N[C@@H](CCCNC(=N)N)C(=O)N[C@H](C(=O)N[C@@H](CCC(=O)O)C(=O)N[C@H](C(=O)NCC(=O)N[C@@H](CO)C(=O)NCC(=O)N[C@@H](CO)C(=O)N[C@@H](CO)C(N)=O)[C@@H](C)O)[C@@H](C)O)[C@@H](C)O
For B1, the “hCTR funct. EC50 (pM), tested with HSA” value in assay [1] stood at 154 pM. In addition, in assay [2], the “hAmylin-R funct. EC50 (pM), tested with HSA” value (shortened to “hAmylin-R funct. EC50 (pM)”) turned out to be 328 pM.

B2: [N-terminal(C20 diacid-gGlu), des1, 30S, 31G, 33L]mimylin (peptide)
peptide: {C20 diacid-γGlu}-ASELSTAALGRLSAELHELATLPRTETGSGSL-NH2
SMILES: CC(C)C[C@H](NC(=O)[C@H](CO)NC(=O)CNC(=O)[C@H](CO)NC(=O)CNC(=O)[C@@H](NC(=O)[C@H](CCC(=O)O)NC(=O)[C@@H](NC(=O)[C@H](CCCNC(=N)N)NC(=O)[C@@H]1CCCN1C(=O)[C@H](CC(C)C)NC(=O)[C@@H](NC(=O)[C@H](C)NC(=O)[C@H](CC(C)C)NC(=O)[C@H](CCC(=O)O)NC(=O)[C@H](Cc1c[nH]cn1)NC(=O)[C@H](CC(C)C)NC(=O)[C@H](CCC(=O)O)NC(=O)[C@H](C)NC(=O)[C@H](CO)NC(=O)[C@H](CC(C)C)NC(=O)[C@H](CCCNC(=N)N)NC(=O)CNC(=O)[C@H](CC(C)C)NC(=O)[C@H](C)NC(=O)[C@H](C)NC(=O)[C@@H](NC(=O)[C@H](CO)NC(=O)[C@H](CC(C)C)NC(=O)[C@H](CCC(=O)O)NC(=O)[C@H](CO)NC(=O)[C@H](C)NC(=O)CC[C@H](NC(=O)CCCCCCCCCCCCCCCCCCC(=O)O)C(=O)O)[C@@H](C)O)[C@@H](C)O)[C@@H](C)O)[C@@H](C)O)C(N)=O
B2: the “hCTR funct. EC50 (pM), tested with HSA” value in assay [1] is 78 pM. Moreover, the “hAmylin-R funct. EC50 (pM)” value in assay [2] stood at 168 pM.

B3: [N-terminal(C20 diacid-gGlu), des1, 15E, 30S, 31G]mimylin (peptide)
peptide: {C20 diacid-γGlu}-ASELSTAALGRLSEELHELATLPRTETGSGSP-NH2
SMILES: CC(C)C[C@H](NC(=O)[C@H](C)NC(=O)[C@H](C)NC(=O)[C@@H](NC(=O)[C@H](CO)NC(=O)[C@H](CC(C)C)NC(=O)[C@H](CCC(=O)O)NC(=O)[C@H](CO)NC(=O)[C@H](C)NC(=O)CC[C@H](NC(=O)CCCCCCCCCCCCCCCCCCC(=O)O)C(=O)O)[C@@H](C)O)C(=O)NCC(=O)N[C@@H](CCCNC(=N)N)C(=O)N[C@@H](CC(C)C)C(=O)N[C@@H](CO)C(=O)N[C@@H](CCC(=O)O)C(=O)N[C@@H](CCC(=O)O)C(=O)N[C@@H](CC(C)C)C(=O)N[C@@H](Cc1c[nH]cn1)C(=O)N[C@@H](CCC(=O)O)C(=O)N[C@@H](CC(C)C)C(=O)N[C@@H](C)C(=O)N[C@H](C(=O)N[C@@H](CC(C)C)C(=O)N1CCC[C@H]1C(=O)N[C@@H](CCCNC(=N)N)C(=O)N[C@H](C(=O)N[C@@H](CCC(=O)O)C(=O)N[C@H](C(=O)NCC(=O)N[C@@H](CO)C(=O)NCC(=O)N[C@@H](CO)C(=O)N1CCC[C@H]1C(N)=O)[C@@H](C)O)[C@@H](C)O)[C@@H](C)O
On to B3, for which the “hCTR funct. EC50 (pM), tested with HSA” value in assay [1] was 40 pM. In addition, in assay [2], the “hAmylin-R funct. EC50 (pM)” value stood at 85 pM.

B4: [N-terminal(C20 diacid-gGlu), des1, 30S, 31G, 33G]mimylin (peptide)
peptide: {C20 diacid-γGlu}-ASELSTAALGRLSAELHELATLPRTETGSGSG-NH2
SMILES: CC(C)C[C@H](NC(=O)[C@H](C)NC(=O)[C@H](C)NC(=O)[C@@H](NC(=O)[C@H](CO)NC(=O)[C@H](CC(C)C)NC(=O)[C@H](CCC(=O)O)NC(=O)[C@H](CO)NC(=O)[C@H](C)NC(=O)CC[C@H](NC(=O)CCCCCCCCCCCCCCCCCCC(=O)O)C(=O)O)[C@@H](C)O)C(=O)NCC(=O)N[C@@H](CCCNC(=N)N)C(=O)N[C@@H](CC(C)C)C(=O)N[C@@H](CO)C(=O)N[C@@H](C)C(=O)N[C@@H](CCC(=O)O)C(=O)N[C@@H](CC(C)C)C(=O)N[C@@H](Cc1c[nH]cn1)C(=O)N[C@@H](CCC(=O)O)C(=O)N[C@@H](CC(C)C)C(=O)N[C@@H](C)C(=O)N[C@H](C(=O)N[C@@H](CC(C)C)C(=O)N1CCC[C@H]1C(=O)N[C@@H](CCCNC(=N)N)C(=O)N[C@H](C(=O)N[C@@H](CCC(=O)O)C(=O)N[C@H](C(=O)NCC(=O)N[C@@H](CO)C(=O)NCC(=O)N[C@@H](CO)C(=O)NCC(N)=O)[C@@H](C)O)[C@@H](C)O)[C@@H](C)O
Take B4: the “hCTR funct. EC50 (pM), tested with HSA” value in assay [1] is 239 pM. The “hAmylin-R funct. EC50 (pM)” value in assay [2] stood at 435 pM.

B5: [N-terminal(C20 diacid-gGlu), des1, 30S, 31G, 33A]mimylin (peptide)
peptide: {C20 diacid-γGlu}-ASELSTAALGRLSAELHELATLPRTETGSGSA-NH2
SMILES: CC(C)C[C@H](NC(=O)[C@H](C)NC(=O)[C@H](C)NC(=O)[C@@H](NC(=O)[C@H](CO)NC(=O)[C@H](CC(C)C)NC(=O)[C@H](CCC(=O)O)NC(=O)[C@H](CO)NC(=O)[C@H](C)NC(=O)CC[C@H](NC(=O)CCCCCCCCCCCCCCCCCCC(=O)O)C(=O)O)[C@@H](C)O)C(=O)NCC(=O)N[C@@H](CCCNC(=N)N)C(=O)N[C@@H](CC(C)C)C(=O)N[C@@H](CO)C(=O)N[C@@H](C)C(=O)N[C@@H](CCC(=O)O)C(=O)N[C@@H](CC(C)C)C(=O)N[C@@H](Cc1c[nH]cn1)C(=O)N[C@@H](CCC(=O)O)C(=O)N[C@@H](CC(C)C)C(=O)N[C@@H](C)C(=O)N[C@H](C(=O)N[C@@H](CC(C)C)C(=O)N1CCC[C@H]1C(=O)N[C@@H](CCCNC(=N)N)C(=O)N[C@H](C(=O)N[C@@H](CCC(=O)O)C(=O)N[C@H](C(=O)NCC(=O)N[C@@H](CO)C(=O)NCC(=O)N[C@@H](CO)C(=O)N[C@@H](C)C(N)=O)[C@@H](C)O)[C@@H](C)O)[C@@H](C)O
Regarding B5, in assay [1], the “hCTR funct. EC50 (pM), tested with HSA” value was determined as 102 pM. Further, the “hAmylin-R funct. EC50 (pM)” value in assay [2] was found to be 265 pM.

B6: [N-terminal(C20 diacid-gGlu), des1, 15e, 30S, 31G]mimylin (peptide)
peptide: {C20 diacid-γGlu}-ASELSTAALGRLS[dE]ELHELATLPRTETGSGSP-NH2
SMILES: CC(C)C[C@H](NC(=O)[C@H](C)NC(=O)[C@H](C)NC(=O)[C@@H](NC(=O)[C@H](CO)NC(=O)[C@H](CC(C)C)NC(=O)[C@H](CCC(=O)O)NC(=O)[C@H](CO)NC(=O)[C@H](C)NC(=O)CC[C@H](NC(=O)CCCCCCCCCCCCCCCCCCC(=O)O)C(=O)O)[C@@H](C)O)C(=O)NCC(=O)N[C@@H](CCCNC(=N)N)C(=O)N[C@@H](CC(C)C)C(=O)N[C@@H](CO)C(=O)N[C@H](CCC(=O)O)C(=O)N[C@@H](CCC(=O)O)C(=O)N[C@@H](CC(C)C)C(=O)N[C@@H](Cc1c[nH]cn1)C(=O)N[C@@H](CCC(=O)O)C(=O)N[C@@H](CC(C)C)C(=O)N[C@@H](C)C(=O)N[C@H](C(=O)N[C@@H](CC(C)C)C(=O)N1CCC[C@H]1C(=O)N[C@@H](CCCNC(=N)N)C(=O)N[C@H](C(=O)N[C@@H](CCC(=O)O)C(=O)N[C@H](C(=O)NCC(=O)N[C@@H](CO)C(=O)NCC(=O)N[C@@H](CO)C(=O)N1CCC[C@H]1C(N)=O)[C@@H](C)O)[C@@H](C)O)[C@@H](C)O
Take B6: in assay [1], the “hCTR funct. EC50 (pM), tested with HSA” value was determined as 23 pM. The “hAmylin-R funct. EC50 (pM)” value in assay [2] was determined as 94 pM.
